Results taken from the nanobody polyreactivity screen of Harvey et al. (2022).

assay: yeast display, Sf9 membrane polyspecificity reagent, FACS + sequencing; frameworks hold sequencing errors
Procedure, shortened: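 Genes from sorted yeast were amplified by colony PCR, read by MiSeq 2 × 250 sequencing and filtered on CDR length. These cells carried a synthetic nanobody library in Saccharomyces cerevisiae BJ5465 and were sorted by FACS into low and high (top ~1%) gates on anti-HA and streptavidin fluorescence. Polyreactivity is labelled according to the gate of origin.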

Sequence | polyreactivity (PSR sort gate)
QVQLVESGGGLVQAGGSLRLSCAASGFIYKYAMGWYRPAPGKERELVAAISQNGGSTRYADSVKGRFTISRDNAKNTVYLQMNSLKPEDTAVYYCNTGVARGYKYWGQGTQVTVSS | high polyreactivity
QVQLVESGGGLVQAGGSLRLSCAASGFIYNTKGWYRQAPGKERELVAAISRSGGSTDYADSVKGRFTISRDNAKNTVYLQMTSLKPEDTAVYYCAARRPYRDGYDYWGQGTQVTVSS | high polyreactivity
QVQLVESGGGLVQAGGSLRLSCAASGFIYPRNTMGWYRQAPGKERELVAAITWIGGRTYYADSVKGRFTISRDNAKNTVYLQMNSLKPEDTAVYYCAADYSVFYDEDYWGQGTQVTVSS | low polyreactivity
QVQLVESGGGLVQAGGSLRLSCAASGFIYRLNAMGWYRQAPGKERELVAAISTYADSVKGRFTFSRDNAKTTVYLQMNSLKPEDTAVYYCAKDYTDSYAYRTGFDYWGQGTQVTVSS | low polyreactivity
QVQLVESGGGLVQAGGSLRLSCAASGFIYRVYGMGWYRQAPVKERELLAAISGRGGSTYYADSVKGRFTISRDNANNTVYLQMHSLKPEDTAVYYCYTLDIRTYSKYDYWGQGTQVTVSS | high polyreactivity
QVQLVESGGGLVQAGGSLRLSCAASGFIYWYYAMGWYRQAPGKERELVAAISGTGGTTYYADSVKGRFTISRDNAKNTVYLQMKSLKPEDTAVYYCNDRYDSRRTAIGYDYWGQGTQVTGSS | low polyreactivity
QVQLVESGGGLVQAGGSLRLSCAASGFIYYGYAMGWYRQAPGKEMELVAAITSGGSTTYADSVKGRFTISRDNAKNTVYLQMNSLKPVDTAVYYGAASVCREVGWGQGTQVTVSS | high polyreactivity
QVQLVESGGGLVQAGGSLRLSCAASGFLFRYYTMGWYRQAPGKERDLVAVITRGGSTYYADSVKGRFTISRDNAKNTVYLQMNSLKPEDTAVYYCAAVRTKVWRGPEMDYWGQGTQVTVSS | high polyreactivity
QVQLVESGGGLVQAGGSLRLSCAASGFNFDANPLGWYRQAAGKERELVAAISWSGGSTYYADSVKGRFTISRDYANNSVYLQMNTLKPEDTAVYYCAADILGYSYEYWGQGTQVTVSS | high polyreactivity
QVQLVESGGGLVQAGGSLRLSCAASGFNFDENAMGWYRQAPGKEREFYAAISISGSSTYADSVKGRFTISRDNAKNTVYLQMNCLKPEDTAVYFCAASYTTEYTGDGHSGVGDGDYWGQGTQVTVSS | low polyreactivity
QVQLVESGGGLVQAGGSLRLSCAASGFNFDFYAMGWYRQAPGKEREMVAAISKNDGTTYFAYSVKGRFTISRDNAKNTVYLQMNSLKPEDTAVYFCAAESGYPVYTYVSSGVYWGQGTQVTVSS | low polyreactivity
QVQLVESGGGLVQAGGSLRLSCAASGFNFDYNAMGWYRQAPGKERELVAAISWSGGRTYYADSVKGRFTISRDNAKNTVYLQMNSLKPEDTAVYYCAARARNYPPYNYWGQGTQVTVSS | high polyreactivity
QVQLVESGGGLVQAGGSLRLSCAASGFNFNKNAMGWYRQAPGKERELVAAISGTGGSTYYADSVKVRFTISRDNAKNTVYLQMNSLKPEDTAVYFCASRRYRQFSTGGQPGYYWGQGTLVTVSS | high polyreactivity
QVQLVESGGGLVQAGGSLRLSCAASGFNFRYYTMGWYRQAPGTERELVAVITSGGTTYYADSVKGRFTISRDNAKNTVYLQMNSLKPEDTAVYYCAADYRPRLYGVGVDYWGQGTQVTVSS | low polyreactivity
QVQLVESGGGLVQAGGSLRLSCAASGFNFSPYAMGWYRQAPGKERELVAAISSSGGSTYYADSVKGRFTISRDNAKNTVYLQMNSLKPEDTAVYYCNAAGGYRTSPSDYWGQGTQVTVSS | high polyreactivity
QVQLVESGGGLVQAGGSLRLSCAASGFNFSYYAMGWYRHAPGKEWELVAAISRSGGSTYYADSVKGRFTISRDNAKNTVYLQMNSLKPEDTAVYYCAKRIKDRSGEAYVGLYYWGQGTQVTVSS | high polyreactivity
QVQLVESGGGLVQAGGSLRLSCAASGFNFYYYAMGWYRQAPGKERELVAVLTESGSSTYYADSVKGRFTISRDNAKNTVYLQMNSLKPEDSAVYYCNADFWPFTGKYDSVHLDYWGQATQVTVSS | low polyreactivity
QVQLVESGGGLVQAGGSLRLSCAASGFNIASYDMGWYRQAPGKERELVAAISKGGGRTYYADSVKGRFTISRDIAKNTVYLQMNSLKPEDTAVDYCAAEYRGYLHYHFQYLFDYWGQGTQVNVSS | low polyreactivity
QVQLVESGGGLVQAGGSLRLSCAASGFPFPDYAMGWYRQAPGKERELVAGISSTGDSTYYADSVKGRFTISRDNAKNTVYLQMNSLKPEDTAVYYCNAAQERPIIILFSKYDYWGQGTQVTVSS | low polyreactivity
QVQLVESGGGLVQAGGSLRLSCAASGFSFRVYTMGWYRQAPGKERELVAAISYRGGRTYYADTVKGRFTISRDNAKNNVYLQMNSLKPEDSALYYCAATAIYPSAWRMDYWGQGTLVTVSS | high polyreactivity
QVQLVESGGGLVQAGGSLRLSCAASGFSIAYYAMGWYRQEPGKERELVAAISRRGGSTYYADSVKGRFTISRDNAKNTVYLQMNSLKPEDTAVYYCAKAHYLSDYNYWGQGTQVTVSS | high polyreactivity
QVQLVESGGGLVQAGGSLRLSCAASGFTASYAMGWYRQAPWKERELVATINSGGGSTRYADSVKGRFTISRDNAKNTVYLQMNSLKPEDTAVYYCAKRWRRNFDYWGQGTQVTVSS | high polyreactivity

Sequence | polyreactivity (PSR sort gate)
QVQLVESGGGLVQAGGSLRLSCAASGFTCSRYAMGWYRQAPGKERELVAAISSGGSTNYADSVKGRFTISRDNAKNTVYLQMNSLKPEDTAVYYCAVTWRYKGYYWGQGTQVTVSS | high polyreactivity
QVQLVESGGGLVQAGGSLRLSCAASGFTCVPYAMGWYSQAPGKARELVAAITGGGSTYYADSVKGRFTISRDNAKNTVYFQMHSLKPEDTAVYYCAAREARSHRYSNRVYYWGQGTQVTVSS | high polyreactivity
QVQLVESGGGLVQAGGSLRLSCAASGFTCVRYAMGWYRPAPGKEREFVASISARGGNTFYADSVKGRFTISRDHAKNTVYLQMNSLKPEDTAVYYCAKRGPYGTGYGYWGQGTQLTVSS | high polyreactivity
QVQLVESGGGLVQAGGSLRLSCAASGFTCYNYAMGWYRQAPGKERELVAAITSSGTSTYYADSVKGRFTISRDNAKNTVYLQMNSLKPEDTAVYYCATYVAYHRGYSTYDHWGQGSQVTVSS | low polyreactivity
QVQLVESGGGLVQAGGSLRLSCAASGFTFAAYAMGWYRQAPGKERELVAAISWSGGSTRYADCVKGRYTISRDNAKNTVYLQKNSLIPEDTAVYYCNAVGYRVGIYSSKGDYWGQGTQVTVSS | high polyreactivity
QVQLVESGGGLVQAGGSLRLSCAASGFTFAFYAMGWYRQAPGKERELVAAISWDGVTTYYADSVKGRFTISRDNAKNTVYLQMNSLKPEDTAVYYCAADYPDYAGSFWPSGMYYWGQGTQVTVSS | low polyreactivity
QVQLVESGGGLVQAGGSLRLSCAASGFTFAFYAMGWYRQAPGKERELVAAITGSGGSTYYADSVKGRFTISRDNAKNTVYLQMNSLKPEDTAVYYCAADLVVDYEWYDYWGQGTQVTVSS | high polyreactivity
QVQLVESGGGLVQAGGSLRLSCAASGFTFAGYVLGWYRKAPGKDRELVAAISNSGGRTYADSVKGRFTISRDNAKNTVYLQMNSLKPEDTAVYYCAKKPGGFSQASRVDYDYWGQGTQVTVSS | low polyreactivity
QVQLVESGGGLVQAGGSLRLSCAASGFTFAKYAMGWYRQAPGKERELVAAISSSGGRTYYADSVQGRFTISRDNAKNTVYLQMNSLKPEDTAVYYCAADFSGPFDYWGQGTQVTVSS | high polyreactivity
QVQLVESGGGLVQAGGSLRLSCAASGFTFALYAMGWYRQAPGKEREVVASIDNGVSTNYADSVKGRFTISRDNAKNTVYLQMNSLKPEDTAVYYCAKGPGYGFYKLLSYDSWGQGTQVTVSS | low polyreactivity
QVQLVESGGGLVQAGGSLRLSCAASGFTFAQYAMGWYRQAPGKERELVATISRRGGSTYYADSVKGRFTISRDNAKNTVYLQMNSLKPEDTAVYYCTAAKYLYRHGFLSAGDMYYWGQGTQVTVSS | high polyreactivity
QVQLVESGGGLVQAGGSLRLSCAASGFTFARNAMGWNRQAPGKERELVASITQRGGSTNYADSVKGRFTISRDNAKNTVYFQLNSLKPEDTAVYYCNKASQLYYIQGTYSYGYWGQGSQVTVSS | low polyreactivity
QVQLVESGGGLVQAGGSLRLSCAASGFTFARNAMGWYRQAPGKERELVAAINRSGGSTYYADSVKGRFTISRDNAKNTVYLQMNSLKPEDTAVYYCNKPRLAQQGYDYWGQGTQVTVSS | high polyreactivity
QVQLVESGGGLVQAGGSLRLSCAASGFTFARNAMGWYRQAPGKEWELGATISTSGGSTYYADSVKGRFTISRDNAKNTVYLQMNSLKPEDSAVYYFAASYWKGYRRDYWGQGTQVTVSS | low polyreactivity
QVQLVESGGGLVQAGGSLRLSCAASGFTFATNAMGWYRQAPGTERELVAAISSRGGSTYYADSVKGRFTISRDNAKNTVYLQMNSLKPEDTAVYYCNAYRRLGGYDYWGQGTQVTVSS | high polyreactivity
QVQLVESGGGLVQAGGSLRLSCAASGFTFATYAMGWYRQAPGKERELVAAISKSGGSTYYADSVKGRFTISRDNAKNTVYLQMNSLKPEDTAVYYCAKRRSVRYDYWGQGTQVTVSS | high polyreactivity
QVQLVESGGGLVQAGGSLRLSCAASGFTFAVYVMGWYRQAPGKERELVAAISRSGGSTYYADSVKGRFTISRDNAKNTVYLQMNSLKPEDTAVYYCNARVWAKYDYWGQGTQVTVSS | high polyreactivity
QVQLVESGGGLVQAGGSLRLSCAASGFTFAVYVMGWYRQAPGKERELVATISISVGSTYYADSVKGRFTISRDNAKNTVYLQMNSLKPEDTAVYYCNADPPPEYYPDKDNYWGQGTQVTVSS | low polyreactivity
QVQLVESGGGLVQAGGSLRLSCAASGFTFAYAMGWYRQAPGKERELVAAISFSGGSTYYADSVKGRFTISRDNAKNTVYLQMNSLKPEDTAVYYCNKRGGKRSTMDYWGHGTQVTVSS | low polyreactivity
QVQLVESGGGLVQAGGSLRLSCAASGFTFAYHAMGWYRQAPGKERELVAGINSSGDGTYYADSVKGRFTISRDNAKNTVYLQMNSLKQEDTAVYYCAADYTGFYQDGSYVDYDYWGQGTQVTVSS | low polyreactivity
QVQLVESGGGLVQAGGSLRLSCAASGFTFAYNAMGWYRQAPGKERELVATISWSGGSPYYADSVKGRFTISRDNAKNTVYLQMNSLKPEDTAVYYCATTIFYTYYGLYDYWGQGTQVTVSS | high polyreactivity
